Target: T1, Gli3C′ΔXhoI (Myc-tagged C-terminal deleted XhoI Gli 3 truncate) (human, UniProt P10071 1-547)
T1 construct: also called Gli3C'XhoI
T1 sequence: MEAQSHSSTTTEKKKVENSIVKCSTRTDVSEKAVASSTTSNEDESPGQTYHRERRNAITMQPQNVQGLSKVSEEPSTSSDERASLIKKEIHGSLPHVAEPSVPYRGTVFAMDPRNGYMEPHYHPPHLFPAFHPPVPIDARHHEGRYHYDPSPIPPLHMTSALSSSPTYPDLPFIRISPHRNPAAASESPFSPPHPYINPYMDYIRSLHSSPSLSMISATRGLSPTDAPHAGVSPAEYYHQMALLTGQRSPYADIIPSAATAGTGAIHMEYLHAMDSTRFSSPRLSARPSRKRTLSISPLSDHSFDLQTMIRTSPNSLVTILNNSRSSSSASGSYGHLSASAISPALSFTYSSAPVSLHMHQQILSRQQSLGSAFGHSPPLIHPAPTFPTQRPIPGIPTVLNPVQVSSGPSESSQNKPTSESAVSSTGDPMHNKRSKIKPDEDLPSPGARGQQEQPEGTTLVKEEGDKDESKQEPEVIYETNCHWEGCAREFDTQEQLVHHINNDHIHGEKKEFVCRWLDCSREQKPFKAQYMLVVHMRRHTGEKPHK
Assay: co-immunoprecipitation (anti-Flag IP, anti-Myc blot), transfected cells
Protocol: Immunoprecipitation and immunoblotting: The assay was performed as previously described ( Liu et al, 1997, Genes Dev. 11:3157-3167). RIB/L17 or COS1 cells were cotransfected with Myc-tagged full-length or deletion derivatives of Gli3 or Gli1 along with a Flag-tagged Smad construct by the DEAE-dextran method. BMP or TGFP stimulation was by cotransfection of an activated BMP or TGFβ receptor and treatment with BMP (2 nM) or TGFβ (500 pM) for 1 hour. Cells were lysed in TNE buffer (10 mM Tris (pH7.8), 150 mM NaCl, 1 mM EDTA, 1% NP40) in the presence of protease inhibitors. Immunoprecipitation was performed by incubation with the M2 anti-Flag antibody (Eastman Kodak) for 1 hour. Immunoprecipitates were separated in an 8% SDS-PAGE and transferred to a PVDF membrane. Inmmunoblotting was carried out by using the 9E10 anti-Myc antibody (ascites), followed by incubation with HRP-conjugated goat anti-mouse antibodies and detected by chemiluminescence (Amersham).

binding result: no binding
B1: Flag-Smad1 (other, UniProt Q15797 1-465, looked up)
chain: MNVTSLFSFTSPAVKRLLGWKQGDEEEKWAEKAVDALVKKLKKKKGAMEELEKALSCPGQPSNCVTIPRSLDGRLQVSHRKGLPHVIYCRVWRWPDLQSHHELKPLECCEFPFGSKQKEVCINPYHYKRVESPVLPPVLVPRHSEYNPQHSLLAQFRNLGQNEPHMPLNATFPDSFQQPNSHPFPHSPNSSYPNSPGSSSSTYPHSPTSSDPGSPFQMPADTPPPAYLPPEDPMTQDGSQPMDTNMMAPPLPSEINRGDVQAVAYEEPKHWCSIVYYELNNRVGEAFHASSTSVLVDGFTDPSNNKNRFCLGLLSNVNRNSTIENTRRHIGKGVHLYYVGGEVYAECLSDSSIFVQSRNCNYHHGFHPTTVCKIPSGCSLKIFNNQEFAQLLAQSVNHGFETVYELTKMCTIRMSFVKGWGAEYHRQDVTSTPCWIEIHLHGPLQWLDKVLTQMGSPHNPISSVS
notes: not shown: Flag tag

From US20030049246A1 (published 2003)
